Non-standard residues stand in square brackets, D forms with d. No end group written: not given here. Hyp = O=C(O)[C@@H]1C[C@@H](O)CN1
What was measured:
[1] = tested on: cytosolic calcium concentrations ([Ca^2+]cyt), Col-0^AEQ seedlings; assay: Calcium influx assay (aequorin seedlings); type: in vivo, Arabidopsis thaliana; conditions: wild type, 30 min
Method: Apoaequorin-expressing liquid-grown eight-day-old seedlings were transferred individually to a 96-well plate containing 100 µl of 5 µM coelenterazine-h (PJK Biotech, Germany) and incubated in the dark overnight. Luminescence was measured using a plate reader (Luminoskan Ascent 2.1, Thermo Fisher Scientific, USA). Background luminescence was recorded by scanning each well 12 times at 10 s intervals, before adding a 25 µl elicitor solution to the indicated final concentration. Luminescence was recorded for 30 min at the same interval. The remaining aequorin was discharged using 2 M CaCl2, 20% ethanol. The values for cytosolic Ca^2+ concentrations ([Ca^2+]cyt) were calculated as luminescence counts per second relative to total luminescence counts remaining (L/Lmax).

[2] = biological target: T1, CEP RECEPTOR 2 ectodomain (CEPR2^ECD) (Arabidopsis thaliana, UniProt Q9C7T7 32-620); assay: ITC; 300 μM peptide in the syringe injected into 30 μM receptor ectodomain in the cell; 25 °C; 20 mM citrate pH 5.0, 150 mM NaCl (SEC buffer); N fitted to 1; duplicates; conditions: both partners purified
T1 construct: CEPR2, Arabidopsis thaliana, ectodomain, residues 32 to 620; Secreted with a 30 K signal peptide from the modified pFastBAC vector; a TEV site stood before the StrepII-9xHis tag, so residues of the site may be left after cleavage; source: Trichoplusia ni Tnao38 cells, secreted, purified (Ni2+, Strep-Tactin, TEV, SEC); not shown: StrepII, C-terminal, cleaved; His9, C-terminal, cleaved
T1 sequence (looked up): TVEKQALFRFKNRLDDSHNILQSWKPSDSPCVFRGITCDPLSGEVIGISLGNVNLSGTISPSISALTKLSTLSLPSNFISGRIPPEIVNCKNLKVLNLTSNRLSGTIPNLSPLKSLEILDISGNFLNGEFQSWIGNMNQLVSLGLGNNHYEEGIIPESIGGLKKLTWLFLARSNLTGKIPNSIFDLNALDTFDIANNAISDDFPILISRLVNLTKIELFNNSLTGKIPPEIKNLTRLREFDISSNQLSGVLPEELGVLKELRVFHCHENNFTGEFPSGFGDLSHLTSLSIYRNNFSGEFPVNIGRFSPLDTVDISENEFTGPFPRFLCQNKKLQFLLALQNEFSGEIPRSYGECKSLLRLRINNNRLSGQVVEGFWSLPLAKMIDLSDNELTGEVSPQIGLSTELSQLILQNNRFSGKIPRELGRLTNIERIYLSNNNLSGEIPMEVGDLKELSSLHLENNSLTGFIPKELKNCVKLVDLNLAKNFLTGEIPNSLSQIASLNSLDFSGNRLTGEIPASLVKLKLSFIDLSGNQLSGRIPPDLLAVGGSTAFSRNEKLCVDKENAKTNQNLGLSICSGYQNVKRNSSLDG

[3] = biological target: T2, RECEPTOR-LIKE KINASE 7 ectodomain (RLK7^ECD) (Arabidopsis thaliana, UniProt F4I2N7 29-608); assay: as above; conditions: both partners purified
T2 construct: RLK7, Arabidopsis thaliana, ectodomain, residues 29 to 608; Secreted with a 30 K signal peptide from the modified pFastBAC vector; a TEV site stood before the StrepII-9xHis tag, so residues of the site may be left after cleavage; source: Trichoplusia ni Tnao38 cells, secreted, purified (Ni2+, Strep-Tactin, TEV, SEC); not shown: StrepII, C-terminal, cleaved; His9, C-terminal, cleaved
T2 sequence (looked up): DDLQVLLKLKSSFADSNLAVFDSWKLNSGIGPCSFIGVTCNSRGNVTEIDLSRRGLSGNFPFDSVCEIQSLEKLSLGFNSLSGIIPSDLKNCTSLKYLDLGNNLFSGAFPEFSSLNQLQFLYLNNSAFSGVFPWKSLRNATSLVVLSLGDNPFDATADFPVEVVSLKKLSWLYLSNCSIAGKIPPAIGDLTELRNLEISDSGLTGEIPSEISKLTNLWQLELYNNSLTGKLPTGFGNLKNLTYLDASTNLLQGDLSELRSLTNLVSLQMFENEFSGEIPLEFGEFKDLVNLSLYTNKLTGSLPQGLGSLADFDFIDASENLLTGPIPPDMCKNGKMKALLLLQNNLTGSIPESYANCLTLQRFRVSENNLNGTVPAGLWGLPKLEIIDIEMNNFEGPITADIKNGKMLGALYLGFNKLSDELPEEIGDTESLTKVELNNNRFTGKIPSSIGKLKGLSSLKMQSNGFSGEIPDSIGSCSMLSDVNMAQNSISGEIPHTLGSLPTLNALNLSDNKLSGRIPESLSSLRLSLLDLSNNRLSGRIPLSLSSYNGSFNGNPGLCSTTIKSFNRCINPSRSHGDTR

Question: For “AFR[Hyp]THQG[Hyp]SQGIGH [CEP4-15mer, 15mer peptide lacking the N-terminal D residue]”, which calcium influx [1] is on record?
Answer: The calcium influx was “triggered a dose-dependent calcium influx with no significant differences to the response elicited by the 16mer peptide”.

B1: C-… ENCODED PEPTIDE 1 (CEP1) (peptide, UniProt Q8L8Y3 72-86, looked up)
peptide: DFRPTNPGNSPGVGH
notes: CEP1 peptide, the mature CEP domain cut from the CEP1 precursor, Arabidopsis thaliana; source: synthetic peptide (Pepmic, at least 90% purity)
Question: With B1 as the molecule, how does the Kd [2] read?
Answer: Its Kd is 9.3 µM.

B2: C-… ENCODED PEPTIDE 4 (CEP4), 16mer (peptide)
peptide: DAFR[Hyp]THQG[Hyp]SQGIGH
notes: CEP4 peptide domain of the CEP4 precursor, Arabidopsis thaliana (AT2G35612); 16mer with N-terminal D and C-terminal H; a 15mer without the N-terminal D is reported only for calcium influx; source: synthetic peptide (Pepmic, at least 90% purity)
Question: How did the Kd [2] turn out when B2 was run?
Answer: The Kd was 15.7 µM.

Question: What about the Kd [3] of the same molecule?
Answer: The Kd was 9 µM.

B3: PAMP-INDUCED PEPTIDE 1 (PIP1) (peptide)
chain: RLASG[Hyp]SPRGRGH
Question: Which Kd [3] does the source give for B3 here?
Answer: Its Kd is 0.5 µM.
